Data taken from patent WO2017179718A1 (dated 2017).

Target: T1, human CD64 (human, UniProt P12314 16-374)
T1 construct: also called hCD64; FcγRIA
Assay: flow cytometry on CHO-S-hCD64 and THP-1 cells

T1 sequence (P12314 16-374 limits assumed): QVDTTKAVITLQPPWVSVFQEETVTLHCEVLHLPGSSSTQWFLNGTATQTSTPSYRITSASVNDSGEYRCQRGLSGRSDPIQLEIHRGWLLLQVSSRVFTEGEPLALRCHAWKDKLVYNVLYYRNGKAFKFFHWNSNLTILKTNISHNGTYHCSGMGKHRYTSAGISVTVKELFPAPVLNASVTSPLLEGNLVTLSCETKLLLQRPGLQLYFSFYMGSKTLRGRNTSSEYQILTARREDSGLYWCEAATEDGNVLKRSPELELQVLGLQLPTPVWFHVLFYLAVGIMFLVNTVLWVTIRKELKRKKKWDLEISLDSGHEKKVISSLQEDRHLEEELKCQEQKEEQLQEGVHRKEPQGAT

B1: m22-AF647 antibody (antibody, human IgG4, V domains shown)
VH: QVQLVESGGGVVQPGRSLRLSCSSSGFIFSDNYMYWVRQAPGKGLEWVATISDGGSYTYYPDSVKGRFTISRDNSKNTLFLQMDSLRPEDTGVYFCARGYYRYEGAMDYWGQGTPVTVSS
VL: DIQLTQSPSSLSASVGDRVTITCKSSQSVLYSSNQKNYLAWYQQKPGKAPKLLIYWASTRESGVPSRFSGSGSGTDFTFTISSLQPEDIATYYCHQYLSSWTFGQGTKLEIK
modifications: Alexa Fluor 647 label on the antibody (sites not given)
notes: kappa) fluorescently labelled with Alexa Fluor 647
binding result: binds
